In PMC10633859 one finds Kd data, which are given here for one molecule.

In data set [1] the target is SIRT6 full length (SIRT6FL) (human, UniProt Q8N6T7 1-355). Briefly: EMSA.
Data set [2] has as its target SIRT6(1-300) (human, UniProt Q8N6T7 1-300). Briefly: EMSA. In general terms: Mobility shift assays separate free from complexed probe on a gel.

Chain of SIRT6 full length (SIRT6FL) (Q8N6T7 whole entry): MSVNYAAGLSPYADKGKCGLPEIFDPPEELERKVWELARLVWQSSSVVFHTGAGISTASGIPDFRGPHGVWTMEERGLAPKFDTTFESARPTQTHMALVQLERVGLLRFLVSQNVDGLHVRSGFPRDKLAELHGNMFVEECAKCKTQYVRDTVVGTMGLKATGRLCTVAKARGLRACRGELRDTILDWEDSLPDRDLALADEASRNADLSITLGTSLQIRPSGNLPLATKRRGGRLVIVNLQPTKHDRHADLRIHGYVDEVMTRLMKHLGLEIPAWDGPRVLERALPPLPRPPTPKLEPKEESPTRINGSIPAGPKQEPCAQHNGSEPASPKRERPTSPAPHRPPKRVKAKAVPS
Chain of SIRT6(1-300) (Q8N6T7 1-300): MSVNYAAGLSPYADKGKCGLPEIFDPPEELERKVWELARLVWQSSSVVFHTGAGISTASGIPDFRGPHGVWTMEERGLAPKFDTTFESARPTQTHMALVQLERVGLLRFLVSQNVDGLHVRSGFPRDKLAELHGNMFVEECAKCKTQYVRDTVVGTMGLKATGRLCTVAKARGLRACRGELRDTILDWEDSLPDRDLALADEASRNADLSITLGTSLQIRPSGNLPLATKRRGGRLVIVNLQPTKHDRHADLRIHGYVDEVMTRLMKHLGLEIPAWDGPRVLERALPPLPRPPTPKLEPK

B1: fluorescent dsDNA 47 bp (dsDNA)
DNA 1: CAGATCTACCGAATCAGTCCGACGACGCATCTGCACTACGAGGATAC
DNA 2: GTATCCTCGTAGTGCAGATGCGTCGTCGGACTGATTCGGTAGATCTG
For B1, the Kd (as a rule, a measure of binding affinity in units of concentration) was 1.93 ± 0.1 µM in data set [1] and 9.68 ± 0.39 µM in data set [2].
